Patent publication US20020155114A1 (published 2002)

Key:
[1] = biological target: botulinum neurotoxin type A (BoNT/A), pure holotoxin (Clostridium botulinum (type A serotype), UniProt P0DPI0 2-1296); assay: cell-based or functional assay
[2] = biological target: T1, BoNT/A Hc (C-terminal domain of botulinum neurotoxin type A heavy chain, binding domain) (Clostridium botulinum (type A serotype), UniProt P0DPI0 860-1296)
[3] = biological target: T1, BoNT/A Hc (C-terminal domain of …); assay: SPR (BIAcore), BoNT/A Hc coupled to CM5 chip, purified scFv in flow

T1 sequence (P0DPI0 860-1296): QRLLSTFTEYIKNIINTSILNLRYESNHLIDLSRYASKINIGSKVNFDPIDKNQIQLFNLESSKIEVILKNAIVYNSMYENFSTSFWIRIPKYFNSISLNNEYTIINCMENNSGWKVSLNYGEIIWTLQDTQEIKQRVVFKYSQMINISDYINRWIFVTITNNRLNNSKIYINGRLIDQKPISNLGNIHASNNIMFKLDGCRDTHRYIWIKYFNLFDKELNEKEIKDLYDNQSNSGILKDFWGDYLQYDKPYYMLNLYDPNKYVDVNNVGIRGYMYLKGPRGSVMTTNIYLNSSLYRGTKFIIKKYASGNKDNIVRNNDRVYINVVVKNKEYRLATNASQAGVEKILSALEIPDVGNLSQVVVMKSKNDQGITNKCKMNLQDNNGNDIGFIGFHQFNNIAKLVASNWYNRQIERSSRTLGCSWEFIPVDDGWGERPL
botulinum neurotoxin type A (BoNT/A), pure holotoxin, sequence (P0DPI0 2-1296 limits assumed): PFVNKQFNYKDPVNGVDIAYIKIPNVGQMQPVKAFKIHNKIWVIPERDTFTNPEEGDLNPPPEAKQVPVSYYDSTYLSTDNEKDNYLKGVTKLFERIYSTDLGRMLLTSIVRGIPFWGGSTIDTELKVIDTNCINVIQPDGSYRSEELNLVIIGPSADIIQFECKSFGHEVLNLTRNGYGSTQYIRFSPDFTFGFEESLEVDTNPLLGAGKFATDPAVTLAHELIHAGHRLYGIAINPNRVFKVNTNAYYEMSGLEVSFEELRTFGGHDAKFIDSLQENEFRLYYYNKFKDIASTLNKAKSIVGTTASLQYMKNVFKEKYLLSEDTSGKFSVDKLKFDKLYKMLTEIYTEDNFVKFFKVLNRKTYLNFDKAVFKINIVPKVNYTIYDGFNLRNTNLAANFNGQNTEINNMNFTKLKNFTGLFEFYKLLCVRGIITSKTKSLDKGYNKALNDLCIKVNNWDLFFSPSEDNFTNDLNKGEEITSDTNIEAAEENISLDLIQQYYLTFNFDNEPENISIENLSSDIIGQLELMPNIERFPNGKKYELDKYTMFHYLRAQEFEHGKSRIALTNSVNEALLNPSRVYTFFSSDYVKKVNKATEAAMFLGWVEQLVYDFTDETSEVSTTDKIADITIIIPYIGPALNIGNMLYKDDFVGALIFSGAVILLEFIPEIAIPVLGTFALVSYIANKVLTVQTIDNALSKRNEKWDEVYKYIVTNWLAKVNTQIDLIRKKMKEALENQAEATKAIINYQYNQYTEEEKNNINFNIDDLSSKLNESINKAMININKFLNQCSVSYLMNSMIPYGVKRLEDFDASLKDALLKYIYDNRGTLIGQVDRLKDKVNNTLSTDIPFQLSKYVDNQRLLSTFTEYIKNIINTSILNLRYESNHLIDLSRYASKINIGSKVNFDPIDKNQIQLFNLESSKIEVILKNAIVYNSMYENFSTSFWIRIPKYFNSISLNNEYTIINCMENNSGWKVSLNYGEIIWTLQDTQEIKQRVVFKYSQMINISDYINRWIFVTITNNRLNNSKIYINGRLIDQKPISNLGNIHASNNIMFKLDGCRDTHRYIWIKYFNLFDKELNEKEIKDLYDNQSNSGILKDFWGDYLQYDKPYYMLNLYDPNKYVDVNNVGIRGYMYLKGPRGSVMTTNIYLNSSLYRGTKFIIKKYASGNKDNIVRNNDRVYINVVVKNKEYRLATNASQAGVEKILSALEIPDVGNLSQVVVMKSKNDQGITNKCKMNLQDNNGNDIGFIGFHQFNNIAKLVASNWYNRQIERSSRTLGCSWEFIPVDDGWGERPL

Binder	prolongation of the time to neuroparalysis (against BoNT/A alone) [1]	Kd [2]	koff [3]	kon [3]
scFv C25 (scFv) scFv: QVQLQESGGGLVKPGGSLKLSCAASGFTFSDYYMYWVRQTPEKRLEWVATISDGGSYTYYPDSVKGRFTISRDNAKNNLYLQMSSLKSEDTAMYYCSRYRYDDAMDYWGQGTTVTVSSGGGGSGGGGSGGGGSDIELTQSPASLAVSLGQRATISCRASESVDSYGHSFMQWYQQKPGQPPKLLIYRASNLEPGIPARFSGSGSGTDFTLTINPVEADDVATYYCQQSNEDPFTFGSGTKLEIKR	2.7 fold	–	–	–
scFv S25 (scFv) scFv: QVKLQQSGAELVRPGASVKLSCKASGYSLTSYWMNWVKQRPGQGLEWIGMIHPSDSDTRFNQKFEDKATLTVDTSSSTAYMQLSSPTSEDSAVYYCARGLYNGFWYFDVWGQGTTVTVSSGGGGSGGGGSGGGGSDIELTQSPALMAASPGEKVIITCSVSSSISSSNLHWYQQKSGTSPKPWIYGTSNLASGVPVRFSGSGSGTSYSLTISSMEAEDAATYYCQQWSSYPLTFGAGTKLEIKR	1.5 fold	73 nM	0.00082 s⁻¹	11000 M⁻¹ s⁻¹
scFv 1F3 (scFv) scFv: EVQLQQSGAELVKPGASVKLSCKASGYTFTSFWMHWVKQAPGRGLEWIGRLDPNSGETKYNEKFKSKATLTVDKPSSTAYMELSSLTSEDSAVYYCAREAYGYWNFDVWGTGTTVTVSSGGGGSGGGGSGGGGSDIELTQSPASMSASPGEKVTMTCRATSSVSSSYLHWYQQKSGASPKLWIYSASNLASGVPSRFSGSGSGTSYSLTISSVEAEDAATYYCQQYIGYPYTFGGGTKLEIKR	–	12 nM	0.011 s⁻¹	920000 M⁻¹ s⁻¹
scFv 1C6 (scFv) scFv: QIQLLQSGGGVVQPGRSLRLSCAASGFTFSSYAMHWVRQAPGKGLEWVAVISYDGSNKYYADSVKGRFTISRDNSKNTLYLQMNSLRAEDTAVYYCARDWSEGYYYYGMDVWGQGTTVIVSSGGGGSGGGGSGGGGSDIELTQSPASLAVSLGRRATTSCRASESVEYYGTSLMQWYQQKPGQPPKLLIYAASNVESGVPARFSGSGSGTDFSLNIHPVEEEDIAMYFCQQSRKVPWTFGGGTKLEIKR	–	20 nM	0.0025 s⁻¹	130000 M⁻¹ s⁻¹
